{"source": "paper PMC5925748", "about": "(Molecular cancer therapeutics, 2017)", "biological_target": "sEGFR (soluble extracellular region of EGFR, wild type) (Homo sapiens, UniProt P00533)", "experiment": "SPR"}
{"binder": "necitumumab Fab (Fab11F8) (Fab, V domains shown) VH: QVQLQESGPGLVKPSQTLSLTCTVSGGSISSGDYYWSWIRQPPGKGLEWIGYIYYSGSTDYNPSLKSRVTMSVDTSKNQFSLKVNSVTAADTAVYYCARVSIFGVGTFDYWGQGTLVTVSS VL: EIVMTQSPATLSLSPGERATLSCRASQSVSSYLAWYQQKPGQAPRLLIYDASNRATGIPARFSGSGSGTDFTLTISSLEPEDFAVYYCHQYGSTPLTFGGGTKAEIK", "values": [{"measurement": "Kd", "value": 6.1, "unit": "nM"}]}
